# How the values were obtained:
# [1] = target: GST-PDX1 T11A (bacterially purified), P52946
# [2] = target: GST-PDX1 T126A (bacterially purified), P52946
# [3] = target: GST-PDX1 T152A (bacterially purified), P52946
# [4] = target: GST-PDX1 T155A (bacterially purified), P52946
# [5] = target: GST-PDX1 T214A (bacterially purified), P52946
# [6] = target: GST-PDX1 T231A (bacterially purified), P52946
# [7] = target: GST-PDX1 WT (bacterially purified), P52946
# [8] = target: Purified recombinant human PDX-1 (Abcam), P52945
# Sequence of Purified recombinant human PDX-1 (Abcam), P52945 (P52945 whole entry): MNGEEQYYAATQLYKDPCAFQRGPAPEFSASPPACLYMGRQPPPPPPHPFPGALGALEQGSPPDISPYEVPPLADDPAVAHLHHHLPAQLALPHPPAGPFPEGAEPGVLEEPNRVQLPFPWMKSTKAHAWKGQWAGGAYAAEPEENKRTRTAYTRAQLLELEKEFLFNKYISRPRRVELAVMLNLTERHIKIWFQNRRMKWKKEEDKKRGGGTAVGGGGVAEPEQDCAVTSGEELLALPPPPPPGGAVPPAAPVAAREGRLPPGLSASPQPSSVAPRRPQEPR
# Sequence of GST-PDX1 T231A (bacterially purified), P52946 (P52946 whole entry T231A, looked up): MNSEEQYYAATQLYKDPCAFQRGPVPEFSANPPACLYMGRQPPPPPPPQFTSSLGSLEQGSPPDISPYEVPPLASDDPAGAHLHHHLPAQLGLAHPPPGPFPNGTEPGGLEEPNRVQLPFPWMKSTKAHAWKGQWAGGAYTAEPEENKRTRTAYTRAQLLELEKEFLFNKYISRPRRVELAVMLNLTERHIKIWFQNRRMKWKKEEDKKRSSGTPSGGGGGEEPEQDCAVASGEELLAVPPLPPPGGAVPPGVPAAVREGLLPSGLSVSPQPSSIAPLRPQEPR
# Sequence of GST-PDX1 T152A (bacterially purified), P52946 (P52946 whole entry T152A, looked up): as the sequence (P52946 whole entry T231A, looked up) above, with T152A, A231T counted along it
# Sequence of GST-PDX1 T126A (bacterially purified), P52946 (P52946 whole entry T126A, looked up): as the sequence (P52946 whole entry T231A, looked up) above, with T126A, A231T counted along it
# Sequence of GST-PDX1 T155A (bacterially purified), P52946 (P52946 whole entry T155A, looked up): as the sequence (P52946 whole entry T231A, looked up) above, with T155A, A231T counted along it
# Sequence of GST-PDX1 WT (bacterially purified), P52946 (P52946 whole entry): as the sequence (P52946 whole entry T231A, looked up) above, with A231T counted along it
# Sequence of GST-PDX1 T214A (bacterially purified), P52946 (P52946 whole entry T214A, looked up): as the sequence (P52946 whole entry T231A, looked up) above, with T214A, A231T counted along it
# Sequence of GST-PDX1 T11A (bacterially purified), P52946 (P52946 whole entry T11A, looked up): as the sequence (P52946 whole entry T231A, looked up) above, with T11A, A231T counted along it
protein,measurement,setting,value
Purified human active MST1 (Upstate Biotechnology) (protein) METVQLRNPPRRQLKKLDEDSLTKQPEEVFDVLEKLGEGSYGSVYKAIHKETGQIVAIKQVPVESDLQEIIKEISIMQQCDSPHVVKYYGSYFKNTDLWIVMEYCGAGSVSDIIRLRNKTLTEDEIATILQSTLKGLEYLHFMRKIHRDIKAGNILLNTEGHAKLADFGVAGQLTDTMAKRNTVIGTPFWMAPEVIQEIGYNCVADIWSLGITAIEMAEGKPPYADIHPMRAIFMIPTNPPPTFRKPELWSDNFTDFVKQCLVKSPEQRATATQLLQHPFVRSAKGVSILRDLINEAMDVKLKRQESQQREVDQDDEENSEEDEMDSGTMVRAVGDEMGTVRVASTMTDGANTMIEHDDTLPSQLGTMVINAEDEEEEGTMKRRDETMQPAKPSFLEYFEQKEKENQINSFGKSVPGPLKNSSDWKIPQDGDYEFLKSWTVEDLQKRLLALDPMMEQEIEEIRQKYQSKRQPILDAIEAKKRRQQNF,"in vitro kinase assay, pan-phospho threonine western blot",[1],"With the exception of T11A, PDX1-WT and other mutants were efficiently threonine phosphorylated"
same,"in vitro kinase assay, pan-phospho threonine western blot",[2],"With the exception of T11A, PDX1-WT and other mutants were efficiently threonine phosphorylated"
same,"in vitro kinase assay, pan-phospho threonine western blot",[3],"With the exception of T11A, PDX1-WT and other mutants were efficiently threonine phosphorylated"
same,"in vitro kinase assay, pan-phospho threonine western blot",[4],"With the exception of T11A, PDX1-WT and other mutants were efficiently threonine phosphorylated"
same,"in vitro kinase assay, pan-phospho threonine western blot",[5],"With the exception of T11A, PDX1-WT and other mutants were efficiently threonine phosphorylated"
same,"in vitro kinase assay, pan-phospho threonine western blot",[6],"With the exception of T11A, PDX1-WT and other mutants were efficiently threonine phosphorylated"
same,"in vitro kinase assay, pan-phospho threonine western blot",[7],"With the exception of T11A, PDX1-WT and other mutants were efficiently threonine phosphorylated"
same,in vitro kinase assay (32P autoradiography; western blot with phospho-specific antibody),[8],In vitro kinase assays showed that MST1 efficiently phosphorylated PDX1

# — patent US20160083733
